This series concerns the molecule itself. Description: X-ray crystal structure, homodimer interface.

B1: Deinococcus radiodurans LuxS (enzyme)
chain: MPDMANVESFDLDHTKVKAPYVRLAGVKTTPKGDQISKYDLRFLQPNQGAIDPAAIHTLEHLLAGYMRDHLEGVVDVSPMGCRTGMYMAVIGEPDEQGVMKAFEAALKDTAGHDQPIPGVSELECGNYRDHDLAAARQHARDVLDQGLKVQETILLERGSHHHHHH
modifications: selenomethionine in place of methionine (SeMet protein used for the crystals)
notes: Open reading frame amplified from D. radiodurans ATCC 13939D genomic DNA and expressed in E. coli with 8 added C-terminal residues; The same protein gave several crystal forms: P21 has a non-crystallographic dimer in the asymmetric unit, and C2 has a crystallographic dimer; also called D. radiodurans LuxS; Deinococcus radiodurans wtLuxS
On to B1, for which the “surface area buried through the dimer interaction” value came to 3930 Å^2.

B2: Haemophilus influenzae LuxS (enzyme)
chain: MPLLDSFKVDHTKMNAPAVRIAKTMLTPKGDNITVFDLRFCIPNKEILSPKGIHTLEHLFAGFMRDHLNGDSIEIIDISPMGCRTGFYMSLIGTPNEQKVSEAWLASMQDVLGVQDQASIPELNIYQCGSYTEHSLEDAHEIAKNVIARGIGVNKNEDLSLDNSLLKGSHHHHHH
modifications: selenomethionine in place of methionine (SeMet protein used for the crystals)
notes: Open reading frame amplified from H. influenzae ATCC 51907D genomic DNA and expressed in E. coli with 8 added C-terminal residues; Homodimer in the crystal (two molecules in the asymmetric unit); also called H. influenzae LuxS; Haemophilus influenzae wtLuxS
Regarding B2, the “surface area buried through the dimer interaction” value came out at 4160 Å^2.

B3: Helicobacter pylori LuxS (enzyme)
chain: MKMNVESFNLDHTKVKAPYVRIADRKKGVNGDLIVKYDVRFKQPNRDHMDMPSLHSLEHLVAEIIRNHANYVVDWSPMGCQTGFYLTVLNHDNYTEILEVLEKTMQDVLKAKEVPASNEKQCGWAANHTLEGAQNLARAFLDKRAEWSEVGVGSHHHHHH
modifications: selenomethionine in place of methionine (SeMet protein used for the crystals)
notes: Open reading frame amplified from H. pylori ATCC 43504D genomic DNA and expressed in E. coli with 8 added C-terminal residues; Homodimer in the crystal (two molecules, A and B, in the asymmetric unit); also called H. pylori LuxS; Helicobacter pylori wtLuxS
Turning to B3, the “surface area buried through the dimer interaction” value is 4180 Å^2.

(Values after patent publication US20040077522A1 (published 2004).)
